Positions count from the first letter of the chain named.
B1: PD1AB-2 (antibody, V domains shown)
VH: EVQLVQSGAEVKKPGATVKISCKVSGFNIKDTYMHWVQQAPGKGLEWMGRIDPANGDRKYDPKFQGRVTITADTSTDTAYMELSSLRSEDTAVYYCARSGPVYYYGSSYVMDYWGQGTTVTVSS
VL: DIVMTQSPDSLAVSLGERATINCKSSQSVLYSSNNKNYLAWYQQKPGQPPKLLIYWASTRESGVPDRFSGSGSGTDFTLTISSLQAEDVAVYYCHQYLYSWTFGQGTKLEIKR
notes: also called HC/LC TOPO vector 3015/3193
B2: PD1AB-6 (antibody, IgG1, V domains shown)
VH: B1 VH with V24A
VL: DIVMTQSPDSLAVSLGERATINCKSGQSVLYSSNQKNFLAWYQQKPGQPPKLLIYWASTRESGVPDRFSGSGSGTDFTLTISSLQAEDVAVYYCHQYLYSWTFGQGTKLEIKR
notes: also called HC/LC TOPO vector 3650/3017
B3: PD1AB-3 (antibody, V domains shown)
VH: B1 VH with D77N
VL: B2 VL with S83N
notes: also called HC/LC TOPO vector 3653/3646
B4: PD1AB-4 (antibody, V domains shown)
VH: B1 VH with D77N
VL: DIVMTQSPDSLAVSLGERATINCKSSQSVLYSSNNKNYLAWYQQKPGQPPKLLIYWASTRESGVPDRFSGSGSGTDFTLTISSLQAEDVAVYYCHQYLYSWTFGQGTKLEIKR
notes: also called HC/LC TOPO vector 3653/3193
B5: PD1AB-5 (antibody, V domains shown)
VH: B1 VH with V24A
VL: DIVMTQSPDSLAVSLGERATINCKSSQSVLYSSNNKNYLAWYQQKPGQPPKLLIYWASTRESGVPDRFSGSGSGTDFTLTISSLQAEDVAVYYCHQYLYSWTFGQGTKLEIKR
notes: also called HC/LC TOPO vector 3650/3193
B6: PD1AB-1 (antibody, V domains shown)
VH: B1 VH
VL: B2 VL
notes: also called parental clone PD1AB-1; HC/LC TOPO vector 3015/3017

target: T1, human PD-1 (soluble / purified antigen, construct not stated) (human, UniProt Q15116 25-170, limits assumed); experiment: KinExA, n = 1
T1 construct: also called soluble antigen
T1 sequence (Q15116 25-170 limits assumed): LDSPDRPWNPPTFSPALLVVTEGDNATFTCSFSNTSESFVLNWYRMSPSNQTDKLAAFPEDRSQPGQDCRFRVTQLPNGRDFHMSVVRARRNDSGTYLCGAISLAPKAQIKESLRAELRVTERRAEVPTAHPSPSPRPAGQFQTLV

Row | Binder | Kd [nM]
1 | B1 | 0.425
2 | B2 | 0.45
3 | B3 | 0.35
4 | B4 | 0.5
5 | B5 | 0.4

target: T1, human PD-1 (soluble / purified antigen, …); experiment: KinExA, n = 2

Row | Binder | Kd [nM]
6 | B6 | 0.575

target: T1, human PD-1 (soluble / purified antigen, …); experiment: Biacore (SPR), n = 2

Row | Binder | Kd [nM]
7 | B1 | 5
8 | B2 | 6
9 | B3 | 7
10 | B4 | 6
11 | B5 | 6

target: T2, human PD-1 expressed on cells (human, UniProt Q15116 25-198); experiment: cell-based or functional assay
T2 sequence (Q15116 25-198 limits assumed): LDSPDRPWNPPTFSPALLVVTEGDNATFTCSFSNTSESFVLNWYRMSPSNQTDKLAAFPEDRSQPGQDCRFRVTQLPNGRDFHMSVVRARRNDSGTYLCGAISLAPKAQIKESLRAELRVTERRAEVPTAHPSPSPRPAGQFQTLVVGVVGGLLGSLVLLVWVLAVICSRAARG

Row | Binder | CD4+ T cell IL-2 inhibition (EC50) [nM]
12 | B6 | 22
13 | B1 | 27
14 | B2 | 16
15 | B3 | 21
16 | B4 | 23
17 | B5 | 15

target: T2, human PD-1 expressed on cells; experiment: cell-based or functional assay; remark: another data set of the same source

Row | Binder | IFN-γ EC50, PBMC reactivation assay [nM] | IFN-γ EC75, PBMC reactivation assay [nM] | IL-2 EC50, PBMC reactivation assay [nM] | IL-2 EC75, PBMC reactivation assay [nM] | IL-17 EC50, PBMC reactivation assay [nM] | IL-17 EC75, PBMC reactivation assay [nM]
18 | B6 | 46 | 85 | 21 | 40 | 41 | 65
19 | B1 | 58 | 91 | 24 | 42 | 36 | 59
20 | B2 | 36 | 67 | 24 | 33 | 37 | 56
21 | B3 |  |  | 24 | 46 |  | 
22 | B4 | 34 | 64 | 20 | 39 | 27 | 52
23 | B5 |  |  | 36 | 58 |  | 

target: T2, human PD-1 expressed on cells; experiment: cell-based or functional assay; remark: another data set of the same source

Row | Binder | IL-2 EC50, human whole blood assay [nM] | hIFN-γ EC50, human whole blood assay [nM] | hIL-17 EC50, human whole blood assay [nM]
24 | B6 | 8.3 | 5.9 | 7.2
25 | B1 | 8.4 | 7.6 | 8.9
26 | B2 | 4 | 4.1 | 3.6
27 | B4 | 10.2 | 9.2 | 9.9

target: T1, human PD-1 (soluble / purified antigen, …); experiment: Biacore (SPR), n = 4; Biacore, n = 4 (not KinExA 575 pM)

Row | Binder | Kd [nM]
28 | B6 | 5

target: T3, murine PD-1 (mouse, UniProt Q02242 25-167, limits assumed); experiment: assay not described; stated in the discussion of the crystal structure
T3 construct: also called mouse PD-1
T3 sequence (looked up): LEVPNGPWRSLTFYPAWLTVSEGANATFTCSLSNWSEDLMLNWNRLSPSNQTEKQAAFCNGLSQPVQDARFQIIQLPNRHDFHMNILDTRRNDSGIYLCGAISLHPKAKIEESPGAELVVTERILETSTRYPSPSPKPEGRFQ

Row | Binder | binding result
29 | B2 | no binding

target: T2, human PD-1 expressed on cells; experiment: competition with DyL650-PD-L1 for binding to cell surface human PD-1 (CHO), flow cytometry

Row | Binder | IC50 [nM]
30 | B6 | > 100
31 | B1 | > 100
32 | B2 | > 100
33 | B3 | > 100
34 | B4 | > 100
35 | B5 | > 100

Source: patent publication US20180289802A1 (CELGENE, published 2018)
